Data as given in PMC8826447 (2022).

Target: ASF1 (Homo sapiens, UniProt Q9Y294)
Sequence (Q9Y294 whole entry): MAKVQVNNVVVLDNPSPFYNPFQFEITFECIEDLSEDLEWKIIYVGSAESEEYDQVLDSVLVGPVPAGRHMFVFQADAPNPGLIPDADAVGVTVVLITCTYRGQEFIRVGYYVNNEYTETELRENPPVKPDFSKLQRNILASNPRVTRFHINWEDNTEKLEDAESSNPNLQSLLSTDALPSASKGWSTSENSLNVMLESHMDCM

Kd: ~2000 nM
B1: TLK2 (protein)
chain: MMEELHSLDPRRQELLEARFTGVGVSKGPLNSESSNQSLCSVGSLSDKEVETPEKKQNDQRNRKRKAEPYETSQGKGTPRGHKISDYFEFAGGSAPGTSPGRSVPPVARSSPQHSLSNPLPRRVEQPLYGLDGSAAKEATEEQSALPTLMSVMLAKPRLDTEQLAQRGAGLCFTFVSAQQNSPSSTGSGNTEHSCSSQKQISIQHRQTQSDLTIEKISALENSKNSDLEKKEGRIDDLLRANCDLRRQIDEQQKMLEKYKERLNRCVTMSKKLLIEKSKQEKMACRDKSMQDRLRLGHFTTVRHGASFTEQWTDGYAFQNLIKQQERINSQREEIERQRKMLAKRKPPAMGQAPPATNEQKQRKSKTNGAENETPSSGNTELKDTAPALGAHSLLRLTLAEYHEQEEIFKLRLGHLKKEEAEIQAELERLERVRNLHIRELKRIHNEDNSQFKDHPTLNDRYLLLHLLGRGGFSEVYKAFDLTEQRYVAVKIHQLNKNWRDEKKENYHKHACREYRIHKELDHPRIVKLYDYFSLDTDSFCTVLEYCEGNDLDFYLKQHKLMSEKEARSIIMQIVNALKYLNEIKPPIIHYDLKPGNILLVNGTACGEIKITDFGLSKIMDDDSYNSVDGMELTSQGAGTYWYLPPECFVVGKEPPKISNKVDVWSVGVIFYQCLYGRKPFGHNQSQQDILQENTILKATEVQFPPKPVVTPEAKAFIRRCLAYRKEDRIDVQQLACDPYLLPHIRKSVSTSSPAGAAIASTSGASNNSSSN
